# From PMC5829230, “G-protein βγ subunits determine grain size through interaction with MADS-domain transcription factors in rice”
# Target: GST-OsMADS1 (Oryza sativa, UniProt Q10PZ9 1-257)
# Test: EMSA; 10x and 50x unlabeled probe as competitor; LightShift Chemiluminescent EMSA Kit (Thermo 20148); buffer, salt, pH and temperature not stated
# Details: protein: recombinant; tags: N-terminal GST (pGEX-4T-1); chain copies: 2; label: biotin; blunt
# Sequence of GST-OsMADS1 (Q10PZ9 whole entry): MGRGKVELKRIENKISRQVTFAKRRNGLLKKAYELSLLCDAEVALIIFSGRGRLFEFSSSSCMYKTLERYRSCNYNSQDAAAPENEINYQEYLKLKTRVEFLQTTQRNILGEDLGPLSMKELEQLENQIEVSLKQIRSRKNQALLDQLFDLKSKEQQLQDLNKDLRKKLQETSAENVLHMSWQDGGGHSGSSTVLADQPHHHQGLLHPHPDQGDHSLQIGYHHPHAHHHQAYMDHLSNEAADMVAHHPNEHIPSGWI
binder,measurement,value
MADS55-EMSA-probe (dsDNA) DNA 1: AGGCAGTATCTATCTATTTATTGCGTATAAACTAAAT DNA 2: ATTTAGTTTATACGCAATAAATAGATAGATACTGCCT,binding result,binds
